According to US20240400720A1 (NOVIMMUNE S A, published 2024):
One block for each binder: values may come before it.

Tests used:
[1] = biological target: T1, human CD47 (human, UniProt Q08722 19-141, limits assumed); experiment: affinity maturation by phage display on hCD47; positive in hCD47-SIRPα inhibition screen, reformatted as IgG
T1 construct: also called hCD47

[2] = biological target: T2, human CD47 on the cell surface (human, UniProt Q08722 19-323); experiment: CD47-SIRPα competitive binding assay: His-tagged soluble human SIRPα (200 ng/ml) on hCD47-transfected CHO cells, antibody 3.3 pM-330 nM; blocked ligand SIRPα
T2 construct: whole, on cells; also called huCD47; native CD47

B1: Ka3D3 antibody (antibody, human IgG1, kappa, V domains shown)
VH: not shown
VL: DIQMTQSPSSLSASVGDRVTITCRASQSIGKYLNWYQQKPGKAPKLLIYAASRLQSGVPSRFSGSGSGTDFTLTISSLQPEDFATYYCQQMHPRAPKTFGQGTKVEIKR
notes: IgG
binding result [1]: binds | binding result [2]: binds

B2: Ke8F1 antibody (antibody, human IgG1, kappa, V domains shown)
VH: not shown
VL: DIQMTQSPSSLSASVGDRVTITCRASQSIASYVNWYQQKPGKAPKLLIYAASGLQSGVPSRFSGSGSGTDFTLTISSLQPEDFATYYCQQFHKRRPQTFGQGTKVEIKR
notes: IgG
binding result [1]: binds | binding result [2]: binds

B3: Ka3G2 antibody (antibody, human IgG1, kappa, V domains shown)
VH: not shown
VL: DIQMTQSPSSLSASVGDRVTITCRASQSIDKYLNWYQQKPGKAPKLLIYAASRLQSGVPSRFSGSGSGTDFTLTISSLQPEDFATYYCQQMHPRGPKTFGQGTKVEIKR
notes: IgG; also called KA3-P5G2
binding result [1]: binds | binding result [2]: binds

B4: Ke8G11 antibody (antibody, human IgG1, kappa, V domains shown)
VH: not shown
VL: DIQMTQSPSSLSASVGDRVTITCRASQSIGRYLNWYQQKPGKAPKLLIYAASSLQSGVPSRFSGSGSGTDFTLTISSLQPEDFATYYCQQMHPRGPKTFGQGTKVEIKR
notes: IgG
binding result [1]: binds | binding result [2]: binds

B5: Ke8B2 antibody (antibody, human IgG1, kappa, V domains shown)
VH: not shown
VL: DIQMTQSPSSLSASVGDRVTITCRASQSIGKYLNWYQQKPGKAPKLLIYAASRLQSGVPSRFSGSGSGTDFTLTISSLQPEDFATYYCQQKHPRAPRTFGQGTKVEIKR
notes: IgG; also called KE8-P3B2
binding result [1]: binds | binding result [2]: binds

B6: Ka3H3 antibody (antibody, human IgG1, kappa, V domains shown)
VH: not shown
VL: DIQMTQSPSSLSASVGDRVTITCQASQDIAKYLNWYQQKPGKAPKLLIYAASALQSGVPSRFSGSGSGTDFTLTISSLQPEDFATYYCQQMHPRSPKTFGQGTKVEIKR
notes: IgG
binding result [1]: binds | binding result [2]: binds

B7: Ka3A3 antibody (antibody, human IgG1, kappa, V domains shown)
VH: not shown
VL: DIQMTQSPSSLSASVGDRVTITCRASQSIASYLNWYQQKPGKAPKLLIYAASRLQSGVPSRFSGSGSGTDFTLTISSLQPEDFATYYCQQMHPRAPKTFGQGTKVEIKR
notes: IgG; also called KA3-P1A3
binding result [1]: binds | binding result [2]: binds

B8: Ke8A4 antibody (antibody, human IgG1, kappa, V domains shown)
VH: not shown
VL: DIQMTQSPSSLSASVGDRVTITCRASQSIAKYLNWYQQKPGKAPKLLIYAASSLQSGVPSRFSGSGSGTDFTLTISSLQPEDFATYYCQQFHKRSPQTFGQGTKVEIKR
notes: IgG
binding result [1]: binds | binding result [2]: binds

B9: Ke8F2 antibody (antibody, human IgG1, kappa, V domains shown)
VH: not shown
VL: DIQMTQSPSSLSASVGDRVTITCRASQSIDKYLNWYQQKPGKAPKLLIYAASSLQSGVPSRFSGSGSGTDFTLTISSLQPEDFATYYCQQKHPRAPRTFGQGTKVEIKR
notes: IgG
binding result [1]: binds

B10: Ke8B7 antibody (antibody, human IgG1, kappa, V domains shown)
VH: not shown
VL: DIQMTQSPSSLSASVGDRVTITCRASQSIGKYLNWYQQKPGKAPKLLIYAASSLQSGVPSRFSGSGSGTDFTLTISSLQPEDFATYYCQQMHPRSPKTFGQGTKVEIKR
notes: IgG
binding result [1]: binds | binding result [2]: binds

B11: Ke8H3 antibody (antibody, human IgG1, kappa, V domains shown)
VH: not shown
VL: DIQMTQSPSSLSASVGDRVTITCRASQSINRYLNWYQQKPGKAPKLLIYAASRLQSGVPSRFSGSGSGTDFTLTISSLQPEDFATYYCQQKHPRGPRTFGQGTKVEIKR
notes: IgG
binding result [1]: binds | binding result [2]: binds

B12: Ka3C5 antibody (antibody, human IgG1, kappa, V domains shown)
VH: not shown
VL: DIQMTQSPSSLSASVGDRVTITCRASQSISRYLNWYQQKPGKAPKLLIYSASSLQSGVPSRFSGSGSGTDFTLTISSLQPEDFATYYCQQMHPRAPKTFGQGTKVEIKR
notes: IgG; also called KA3-P5C5
binding result [1]: binds | binding result [2]: binds

B13: Ke8C4 antibody (antibody, human IgG1, kappa, V domains shown)
VH: not shown
VL: DIQMTQSPSSLSASVGDRVTITCRASQSISRYLNWYQQKPGKAPKLLIYAASNLQSGVPSRFSGSGSGTDFTLTISSLQPEDFATYYCQQMHPRGPKTFGQGTKVEIKR
notes: IgG
binding result [1]: binds | binding result [2]: binds

B14: Ke8G6 antibody (antibody, human IgG1, kappa, V domains shown)
VH: not shown
VL: DIQMTQSPSSLSASVGDRVTITCRASQSIGRYLNWYQQKPGKAPKLLIYAASSLQSGVPSRFSGSGSGTDFTLTISSLQPEDFATYYCQQMHPRAPKTFGQGTKVEIKR
notes: IgG
binding result [1]: binds | binding result [2]: binds

B15: Ke8E8 antibody (antibody, human IgG1, kappa, V domains shown)
VH: not shown
VL: DIQMTQSPSSLSASVGDRVTITCQASQDINKYLNWYQQKPGKAPKLLIYAASSLQSGVPSRFSGSGSGTDFTLTISSLQPEDFATYYCQQKHPRGPRTFGQGTKVEIKR
notes: IgG
binding result [1]: binds | binding result [2]: binds

Results, then the binder that gave them:

binding result [1]: binds | binding result [2]: binds
B16: Ka3A2 antibody (antibody, human IgG1, kappa, V domains shown)
VH: not shown
VL: DIQMTQSPSSLSASVGDRVTITCRASQSISKYLNWYQQKPGKAPKLLIYAASRLQSGVPSRFSGSGSGTDFTLTISSLQPEDFATYYCQQMHPRSPKTFGQGTKVEIKR
notes: IgG

binding result [1]: binds | binding result [2]: binds
B17: Ke8A8 antibody (antibody, human IgG1, kappa, V domains shown)
VH: not shown
VL: DIQMTQSPSSLSASVGDRVTITCRASQSISKYLNWYQQKPGKAPKLLIYAASTLQSGVPSRFSGSGSGTDFTLTISSLQPEDFATYYCQQMHPRAPKTFGQGTKVEIKR
notes: IgG

binding result [1]: binds | binding result [2]: binds
B18: Ke8G2 antibody (antibody, human IgG1, kappa, V domains shown)
VH: not shown
VL: DIQMTQSPSSLSASVGDRVTITCRASQSIGRYLNWYQQKPGKAPKLLIYAASRLQSGVPSRFSGSGSGTDFTLTINSLQPEDFATYYCQQKHPRAPRTFGQGTKVEIKR
notes: IgG

binding result [1]: binds | binding result [2]: binds
B19: Ka3B2 antibody (antibody, human IgG1, kappa, V domains shown)
VH: not shown
VL: DIQMTQSPSSLSASVGDRVTITCRASQNIGKYLNWYQQKPGKAPKLLIYSASRLQSGVPSRFSGSGSGTDFTLTISSLQPEDFATYYCQQMHPRAPKTFGQGTKVEIKR
notes: IgG

binding result [2]: binds
B20: 5A3M4 (antibody, human IgG1, kappa, V domains shown)
VH: not shown
VL: DIQMTQSPSSLSASVGDRVTITCQASQDINKYLNWYQQKPGKAPKLLIYGASRLETGVPSRFSGSGSGTDFTFTISSLQPEDIATYYCQQKHPRNPRTFGQGTKVEIKR
notes: the list MOLECULES holds only the monovalent form; also called 5A3-M4 antibody

binding result [1]: binds | binding result [2]: binds
B21: Ke8C7 antibody (antibody, human IgG1, kappa, V domains shown)
VH: not shown
VL: DIQMTQSPSSLSASVGDRVTITCQASQDINRYLNWYQQKPGKAPKLLIYAASSLQSGVPSRFSGSGSGTDFTLTISSLQPEDFATYYCQQRHPRGPRTFGQGTKVEIKR
notes: IgG

binding result [1]: binds | binding result [2]: binds
B22: Ke8H5 antibody (antibody, human IgG1, kappa, V domains shown)
VH: not shown
VL: DIQMTQSPSSLSASVGDRVTITCRASQSIARYLNWYQQKPGKAPKLLIYAASSLQSGVPSRFSGSGSGTDFTLTISSLQPEDFATYYCQQFHKRAPQTFGQGTKVEIKR
notes: IgG; also called KE8-P6H5

binding result [1]: binds | binding result [2]: binds
B23: Ka3H8 antibody (antibody, human IgG1, kappa, V domains shown)
VH: not shown
VL: DIQMTQSPSSLSASVGDRVTITCRASQSIASYLNWYQQKPGKAPKLLIYAASRLQSGVPSRFSGSGSGTDFTLTISSLQPEDFATYYCQQMHPRSPKTFGQGTKVEIKR
notes: IgG
